Results: patent publication US20220125898A1, “PAR2 MODULATION AND METHODS THEREOF” (JANSSEN BIOTECH, INC., priority 2019, published 2022)

What was measured:
[1] = biological target: Human PAR2 wild type, recombinantly expressed in HEK293 cells with par1 and par2 knocked-out (human) (UniProt P55085); experiment: cell-based or functional assay
[2] = biological target: PAR2 with the signal peptide deleted (PAR2ΔSP) (human) (UniProt P55085); experiment: cell-based or functional assay
[3] = biological target: PAR2 endogenously expressed in HEK293 cells (human) (UniProt P55085); experiment: cell-based or functional assay
[4] = system: HEK293 cells with par1 and par2 knocked-out; experiment: FLIPR characterization of par1 and par2 knock-out HEK293 cells; assay type: cell-based, human
Text: A PAR1, PAR2 knock-out HEK293 cell line was created by Applied StemCells (Milpitas, Calif.) using a CRISPR/Cas9 approach. Briefly, the coding region (nucleotide 374-643) of PAR1, which encodes the protein region transmembrane region 2 (TM2) to transmembrane region 3 (TM3) of PAR1, was deleted. Similarly, the coding region (281-627) of PAR2, which encodes the protein region TM2 to TM3 of PAR2, was deleted. Single cell clones were isolated. PCR analysis of the genomic DNA followed by DNA sequencing was used to confirm the deletion of the DNA fragments.
FLIPR-Tetra (Molecular Device, San Jose, Calif.) was used to monitor intracellular Ca^2+ mobilization in HEK293 cells, HEK293 cells with PAR1 and PAR2 knocked-out, and cells transiently transfected with various PAR2 expression constructs. Cells were grown in 96-well polyD-lysine coated black FLIPR plates (Corning) in DMEM supplemented with 10% FCS, 1 mM pyruvate, 20 mM HEPES, at 37° C. with 5% CO2. For transient transfection, cells were grown in 96-well polyD-lysine coated black FLIPR plates and transfected using FuGENE HD (Promega, Madison, Wis.) as the transfection reagent according to the manufacturer's instructions. […] Intracellular Ca^2+ mobilization stimulated by various concentrations of ligands (trypsin, or peptide ligand) was monitored by FLIPR-Tetra as described (Liu et al., Mol. Pharmacol. 88:911-25 (2015)). […]

EC50, FLIPR intracellular Ca2+ mobilization [1]	EC50, FLIPR intracellular Ca2+ mobilization [2]	EC50, FLIPR intracellular Ca2+ mobilization [3]	Substance	response of knock-out cells to ligand [4]
1.5 nM	50 nM	10 nM	Trypsin (sequencing grade) (enzyme)	–
–	–	–	thrombin	lack of response
